Measurements taken from article PMC9402439.

Key:
[1] = target: human CST (CTC1–STN1–TEN1) heterotrimer, recombinant, from HEK293T cells (human) (UniProt Q2NKJ3)
[2] = target: human CST (CTC1–STN1–TEN1) heterotrimer, recombinant, from HEK293T cells (human) (UniProt Q2NKJ3); assay: co-IP; successive anti-FLAG and anti-HA immunopurifications of 3×FLAG-CTC1, Myc-STN1 and HA-TEN1 from transfected HEK293T cells, 150 mM NaCl in the wash and elution buffers; subunits found by western blot and quantified against insect-cell standards

Sequence of Polα–primase (DNA polymerase α-primase), endogenous human enzyme, four subunits (Q14181 whole entry, looked up, tested part not stated): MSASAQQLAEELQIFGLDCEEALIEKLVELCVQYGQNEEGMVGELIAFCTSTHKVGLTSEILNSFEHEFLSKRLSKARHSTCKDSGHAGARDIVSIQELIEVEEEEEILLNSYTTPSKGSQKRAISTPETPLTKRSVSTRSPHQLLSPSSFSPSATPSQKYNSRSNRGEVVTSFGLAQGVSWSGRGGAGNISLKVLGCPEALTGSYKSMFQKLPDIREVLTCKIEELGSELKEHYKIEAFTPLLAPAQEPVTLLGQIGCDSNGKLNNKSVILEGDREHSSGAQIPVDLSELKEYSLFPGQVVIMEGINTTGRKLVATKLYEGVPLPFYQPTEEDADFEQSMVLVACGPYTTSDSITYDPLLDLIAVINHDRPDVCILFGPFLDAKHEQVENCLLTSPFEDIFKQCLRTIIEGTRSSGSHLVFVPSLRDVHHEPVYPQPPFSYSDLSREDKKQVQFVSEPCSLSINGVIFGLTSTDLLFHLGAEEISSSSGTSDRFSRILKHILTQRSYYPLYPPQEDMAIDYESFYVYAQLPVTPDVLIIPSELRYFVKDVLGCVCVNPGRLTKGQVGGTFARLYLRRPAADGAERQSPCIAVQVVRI
Sequence of Polα–primase (DNA polymerase α-primase), endogenous human enzyme, four subunits (P09884 whole entry, looked up, tested part not stated): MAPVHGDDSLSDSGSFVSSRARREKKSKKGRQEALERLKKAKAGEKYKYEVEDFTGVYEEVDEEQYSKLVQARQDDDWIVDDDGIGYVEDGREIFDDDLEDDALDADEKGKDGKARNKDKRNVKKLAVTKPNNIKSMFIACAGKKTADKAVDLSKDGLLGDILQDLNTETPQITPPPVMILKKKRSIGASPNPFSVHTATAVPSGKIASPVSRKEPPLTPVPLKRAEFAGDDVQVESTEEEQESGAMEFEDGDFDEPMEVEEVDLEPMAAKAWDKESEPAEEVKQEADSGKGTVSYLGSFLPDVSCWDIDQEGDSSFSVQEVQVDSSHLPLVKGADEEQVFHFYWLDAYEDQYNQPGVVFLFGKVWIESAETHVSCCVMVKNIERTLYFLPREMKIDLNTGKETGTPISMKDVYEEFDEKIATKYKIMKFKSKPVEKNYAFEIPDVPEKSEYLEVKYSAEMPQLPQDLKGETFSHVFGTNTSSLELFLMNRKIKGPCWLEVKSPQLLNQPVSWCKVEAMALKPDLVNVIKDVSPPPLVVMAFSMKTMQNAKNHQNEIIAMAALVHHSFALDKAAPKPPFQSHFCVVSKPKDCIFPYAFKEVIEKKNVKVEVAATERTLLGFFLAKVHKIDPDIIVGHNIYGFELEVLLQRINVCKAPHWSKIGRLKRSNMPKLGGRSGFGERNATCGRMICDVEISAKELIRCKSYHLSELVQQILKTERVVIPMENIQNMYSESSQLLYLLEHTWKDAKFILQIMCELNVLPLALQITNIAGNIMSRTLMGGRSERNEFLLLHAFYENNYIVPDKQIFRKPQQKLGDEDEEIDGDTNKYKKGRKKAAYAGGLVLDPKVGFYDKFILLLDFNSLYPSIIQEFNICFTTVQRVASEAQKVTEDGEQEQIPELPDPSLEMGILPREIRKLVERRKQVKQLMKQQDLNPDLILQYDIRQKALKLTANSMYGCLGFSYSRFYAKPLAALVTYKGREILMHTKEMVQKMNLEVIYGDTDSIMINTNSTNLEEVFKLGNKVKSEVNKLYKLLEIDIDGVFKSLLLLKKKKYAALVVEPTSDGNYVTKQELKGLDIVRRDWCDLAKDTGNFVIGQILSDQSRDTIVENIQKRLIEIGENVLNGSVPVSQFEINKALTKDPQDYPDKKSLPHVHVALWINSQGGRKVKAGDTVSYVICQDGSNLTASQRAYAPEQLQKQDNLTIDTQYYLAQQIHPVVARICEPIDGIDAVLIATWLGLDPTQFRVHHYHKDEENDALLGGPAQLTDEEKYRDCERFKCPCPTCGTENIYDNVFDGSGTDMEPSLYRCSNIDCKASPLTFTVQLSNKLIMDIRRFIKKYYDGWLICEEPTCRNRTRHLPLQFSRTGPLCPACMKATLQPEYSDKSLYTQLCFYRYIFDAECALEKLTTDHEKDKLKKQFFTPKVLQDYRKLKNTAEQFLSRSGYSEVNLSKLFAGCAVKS
Sequence of human CST (CTC1–STN1–TEN1) heterotrimer, recombinant, from HEK293T cells (human) (Q2NKJ3 whole entry, chain 1 of 3): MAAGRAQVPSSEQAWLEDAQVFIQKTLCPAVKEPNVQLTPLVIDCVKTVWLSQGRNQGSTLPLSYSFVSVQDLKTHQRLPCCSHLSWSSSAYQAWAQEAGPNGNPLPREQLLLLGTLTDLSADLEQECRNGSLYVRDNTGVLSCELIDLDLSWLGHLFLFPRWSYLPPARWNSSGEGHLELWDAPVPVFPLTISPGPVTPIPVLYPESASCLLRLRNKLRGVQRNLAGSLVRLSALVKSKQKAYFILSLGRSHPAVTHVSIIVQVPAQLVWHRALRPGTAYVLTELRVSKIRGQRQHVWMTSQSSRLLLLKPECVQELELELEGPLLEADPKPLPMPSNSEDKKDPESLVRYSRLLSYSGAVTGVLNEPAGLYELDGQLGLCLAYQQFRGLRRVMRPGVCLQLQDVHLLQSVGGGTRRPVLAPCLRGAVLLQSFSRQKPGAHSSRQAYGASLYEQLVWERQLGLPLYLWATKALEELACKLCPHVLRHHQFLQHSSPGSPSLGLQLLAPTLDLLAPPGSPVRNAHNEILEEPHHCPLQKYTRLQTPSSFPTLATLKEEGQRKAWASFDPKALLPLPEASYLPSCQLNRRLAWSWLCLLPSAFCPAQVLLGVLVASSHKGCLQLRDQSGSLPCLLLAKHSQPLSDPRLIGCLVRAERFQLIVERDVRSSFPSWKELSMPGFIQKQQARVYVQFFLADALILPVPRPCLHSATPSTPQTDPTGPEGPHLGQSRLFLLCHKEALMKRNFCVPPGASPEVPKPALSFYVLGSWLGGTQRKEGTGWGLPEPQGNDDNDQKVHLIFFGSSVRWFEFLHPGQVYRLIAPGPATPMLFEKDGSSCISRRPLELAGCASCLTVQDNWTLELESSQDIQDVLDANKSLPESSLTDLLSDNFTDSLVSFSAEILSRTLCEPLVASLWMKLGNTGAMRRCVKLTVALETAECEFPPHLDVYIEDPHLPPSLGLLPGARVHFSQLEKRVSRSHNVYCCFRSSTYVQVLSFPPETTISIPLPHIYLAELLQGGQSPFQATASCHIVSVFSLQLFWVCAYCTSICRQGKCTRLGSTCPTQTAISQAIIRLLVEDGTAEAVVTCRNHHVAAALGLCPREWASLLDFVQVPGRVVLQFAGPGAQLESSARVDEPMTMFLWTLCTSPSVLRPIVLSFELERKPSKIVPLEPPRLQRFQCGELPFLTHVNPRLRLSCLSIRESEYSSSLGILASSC
Sequence of human CST (CTC1–STN1–TEN1) heterotrimer, recombinant, from HEK293T cells (human) (Q9H668 whole entry, chain 2 of 3, further chain): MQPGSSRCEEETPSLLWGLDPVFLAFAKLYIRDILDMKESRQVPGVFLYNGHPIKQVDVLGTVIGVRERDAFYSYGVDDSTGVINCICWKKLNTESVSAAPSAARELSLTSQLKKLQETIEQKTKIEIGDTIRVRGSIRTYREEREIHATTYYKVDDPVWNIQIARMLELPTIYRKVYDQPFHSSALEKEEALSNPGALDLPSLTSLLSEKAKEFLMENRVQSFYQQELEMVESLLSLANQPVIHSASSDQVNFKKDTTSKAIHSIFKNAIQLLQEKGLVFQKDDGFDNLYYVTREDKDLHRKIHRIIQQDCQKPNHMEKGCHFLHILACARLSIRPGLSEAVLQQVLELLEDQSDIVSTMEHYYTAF
Sequence of human CST (CTC1–STN1–TEN1) heterotrimer, recombinant, from HEK293T cells (human) (Q86WV5 whole entry, chain 3 of 3, further chain): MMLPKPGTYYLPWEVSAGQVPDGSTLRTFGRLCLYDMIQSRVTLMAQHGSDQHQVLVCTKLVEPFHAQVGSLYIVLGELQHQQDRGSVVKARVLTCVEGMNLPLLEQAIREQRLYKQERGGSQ

## Polα–primase (DNA polymerase α-primase), endogenous human enzyme, four subunits (from UniProt P09884 1-1462; Q14181 1-598) (complex)
[1]
  C-strand synthesis activity of CST–Polα–primase from HEK cells relative to recombinant human Polα–primase from insect cells, high concentrations of enzyme and template DNA (5 µM, 15×TEL): > 10 fold
  C-strand synthesis activity of CST–Polα–primase from HEK cells relative to recombinant human Polα–primase from insect cells, standard reaction conditions (100 nM template): > 10000 fold
[2]
  stoichiometry in the purified preparation (POLA per CST): 0.21 POLA per CST
